In patent US20210238298A1 (ALLIGATOR BIOSCIENCE, published 2021):

B1: anti-OX40 antibody 1168/1135 (antibody, V domains shown)
VH: EVQLLESGGGLVQPGGSLRLSCAASGFTFSGSSMSWVRQAPGKGLEWVSSISYYGGYTYYADSVKGRFTISRDNSKNTLYLQMNSLRAEDTAVYYCARYFPHYYFDYWGQGTLVTVSS
VL: not shown
notes: Tested as IgG
B2: anti-OX40 antibody 1164/1135 (antibody, V domains shown)
VH: EVQLLESGGGLVQPGGSLRLSCAASGFTFYGSSMYWVRQAPGKGLEWVSGIYSSGGYTSYADSVKGRFTISRDNSKNTLYLQMNSLRAEDTAVYYCARGVPHGYFDYWGQGTLVTVSS
VL: not shown
notes: Tested as IgG
B3: anti-OX40 antibody 1542/1135 (antibody, V domains shown)
VH: EVQLLESGGGLVQPGGSLRLSCAASGFTFGSSSMYWVRQAPGKGLEWVSGIGYYSYSTSYADSVKGRFTISRDNSKNTLYLQMNSLRAEDTAVYYCARGYPHHYFDYWGQGTLVTVSS
VL: not shown
notes: Tested as IgG
B4: anti-OX40 antibody 1524/1525 (antibody, V domains shown)
VH: EVQLLESGGGLVQPGGSLRLSCAASGFTFGSYYMGWVRQAPGKGLEWVSSIGSYYGYTYYADSVKGRFTISRDNSKNTLYLQMNSLRAEDTAVYYCARHDYGALDYWGQGTLVTVSS
VL: DIQMTQSPSSLSASVGDRVTITCRASQSISSYLNWYQQKPGKAPKLLIYAASSLQSGVPSRFSGSGSGTDFTLTISSLQPEDFATYYCQQYGPSGLFTFGQGTKLEIK
notes: Tested as IgG
B5: anti-OX40 antibody 1482/1483 (antibody, V domains shown)
VH: EVQLLESGGGLVQPGGSLRLSCAASGFTFSSYAMSWVRQAPGKGLEWVSYISYYSGYTYYADSVKGRFTISRDNSKNTLYLQMNSLRAEDTAVYYCARGYGYLDYWGQGTLVTVSS
VL: DIQMTQSPSSLSASVGDRVTITCRASQSISSYLNWYQQKPGKAPKLLIYAASSLQSGVPSRFSGSGSGTDFTLTISSLQPEDFATYYCQQYGSLLTFGQGTKLEIK
notes: Tested as IgG
B6: anti-OX40 antibody 1526/1527 (antibody, V domains shown)
VH: EVQLLESGGGLVQPGGSLRLSCAASGFTFSGYSMYWVRQAPGKGLEWVSGIGYSGYGTYYADSVKGRFTISRDNSKNTLYLQMNSLRAEDTAVYYCARYYFHDYAAYSLDYWGQGTLVTVSS
VL: DIQMTQSPSSLSASVGDRVTITCRASQSISSYLNWYQQKPGKAPKLLIYAASSLQSGVPSRFSGSGSGTDFTLTISSLQPEDFATYYCQQYGSDSLLTFGQGTKLEIK
notes: Tested as IgG

Key:
[1] = molecular target: T1, OX40 chimera 1547: human OX40 with mouse domain 2B, module 3 and domain 4A (aa 83-141), on FreeStyle 293-F … (human; mouse, UniProt P47741 79-139); assay: flow cytometry, 293-F transfectants
T1 construct: domain: 2B, module 3 and 4A; Limits derived as for 1544
T1 sequence: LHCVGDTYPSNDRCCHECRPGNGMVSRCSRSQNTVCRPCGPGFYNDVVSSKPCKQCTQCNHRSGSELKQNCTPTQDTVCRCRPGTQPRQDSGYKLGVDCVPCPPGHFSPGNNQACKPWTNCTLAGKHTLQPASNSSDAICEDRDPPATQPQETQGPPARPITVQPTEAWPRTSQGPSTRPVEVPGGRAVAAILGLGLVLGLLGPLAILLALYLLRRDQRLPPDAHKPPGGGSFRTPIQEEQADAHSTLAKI
Protocol: (§1) The mouse/human chimeras were transiently transfected into FreeStyle 293-F cells (Invitrogen), incubated 48 hours in FreeStyle 293 expression medium (Invitrogen) 37 C, 8% CO₂, 135 rpm. The transfected cells were incubated with human OX40 antibodies, human OX40L (hOX40L, RnD Systems), mouse OX40L (mOX40L, RnD Systems) and controls for 30 min 4° C. and then detected with a-huIgG-PE (Jackson Immunoresearch) 30 min 4° C. Cells were analyzed with FACS Verse (BD Biosciences). Binding to the different chimeric constructs were calculated as relative (mean fluorescence intensity) MFI compared to the binding of the isotype control.

[2] = molecular target: T2, OX40 chimera 1546: human OX40 with mouse domains 2A, 2B and module 3 (aa 66-126), on FreeStyle 293-F cells (human; mouse, UniProt P47741 62-124); assay: flow cytometry, 293-F transfectants
T2 construct: domain: 2A, 2B and module 3; Limits derived as for 1544
T2 sequence: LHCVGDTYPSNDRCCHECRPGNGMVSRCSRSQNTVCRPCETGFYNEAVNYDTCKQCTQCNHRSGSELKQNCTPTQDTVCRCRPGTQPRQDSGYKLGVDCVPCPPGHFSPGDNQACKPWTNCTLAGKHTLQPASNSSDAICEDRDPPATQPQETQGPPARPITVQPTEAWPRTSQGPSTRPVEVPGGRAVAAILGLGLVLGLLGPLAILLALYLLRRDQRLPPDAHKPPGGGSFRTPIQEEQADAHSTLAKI
Protocol: as §1

[3] = molecular target: T3, construct 84: full length OX40 sequence, on FreeStyle 293-F cells (human, UniProt P43489 29-277); assay: flow cytometry, 293-F transfectants
T3 sequence: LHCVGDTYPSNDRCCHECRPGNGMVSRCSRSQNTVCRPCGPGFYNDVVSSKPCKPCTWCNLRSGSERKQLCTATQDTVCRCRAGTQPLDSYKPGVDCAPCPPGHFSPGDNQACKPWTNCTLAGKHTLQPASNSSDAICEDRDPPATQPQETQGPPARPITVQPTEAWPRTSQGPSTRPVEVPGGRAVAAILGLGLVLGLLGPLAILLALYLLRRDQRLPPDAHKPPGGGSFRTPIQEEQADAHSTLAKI
Protocol: as §1

[4] = molecular target: T4, OX40 chimera 1548: human OX40 with mouse module 3 and domains 4A and 4B (aa 108-167), on FreeStyle 293-F cells (human; mouse, UniProt P47741 104-165); assay: flow cytometry, 293-F transfectants
T4 construct: domain: module 3, 4A and 4B; Limits derived as for 1544
T4 sequence: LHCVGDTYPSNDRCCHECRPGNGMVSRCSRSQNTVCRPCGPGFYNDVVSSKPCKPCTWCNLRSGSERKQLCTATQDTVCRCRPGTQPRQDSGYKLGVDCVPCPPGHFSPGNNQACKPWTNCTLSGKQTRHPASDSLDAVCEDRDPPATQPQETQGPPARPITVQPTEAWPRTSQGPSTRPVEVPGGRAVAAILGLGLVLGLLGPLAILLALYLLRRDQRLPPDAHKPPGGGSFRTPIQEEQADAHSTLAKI
Protocol: as §1

[5] = molecular target: T5, OX40 chimera 1545: human OX40 with mouse domains 1B, 2A and 2B (aa 43-107), on FreeStyle 293-F cells (human; mouse, UniProt P47741 39-103); assay: flow cytometry, 293-F transfectants
T5 construct: domain: 1B, 2A and 2B; Limits derived as for 1544
T5 sequence: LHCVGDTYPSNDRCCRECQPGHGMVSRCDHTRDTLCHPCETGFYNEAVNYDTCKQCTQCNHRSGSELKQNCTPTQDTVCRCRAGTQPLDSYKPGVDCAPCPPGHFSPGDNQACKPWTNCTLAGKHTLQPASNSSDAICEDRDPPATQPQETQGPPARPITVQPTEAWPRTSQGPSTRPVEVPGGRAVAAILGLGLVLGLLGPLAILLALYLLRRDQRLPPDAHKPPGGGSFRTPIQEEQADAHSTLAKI
Protocol: as §1

[6] = molecular target: T6, OX40 chimera 1544: human OX40 with mouse domains 1A, 1B and 2A (aa 30-81), on FreeStyle 293-F cells (human; mouse, UniProt P47741 26-77); assay: flow cytometry, 293-F transfectants
T6 construct: domain: 1A, 1B and 2A
T6 sequence: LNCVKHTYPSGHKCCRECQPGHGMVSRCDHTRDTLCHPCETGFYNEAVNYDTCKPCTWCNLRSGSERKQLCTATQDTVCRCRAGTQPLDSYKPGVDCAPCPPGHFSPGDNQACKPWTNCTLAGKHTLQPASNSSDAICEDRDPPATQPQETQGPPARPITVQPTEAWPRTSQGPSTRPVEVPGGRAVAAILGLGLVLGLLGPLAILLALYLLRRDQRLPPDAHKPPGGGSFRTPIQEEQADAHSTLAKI
Protocol: as §1

[7] = molecular target: T7, Human OX40 (R&D systems, #3358_OX) (human, UniProt P43489 29-216); assay: ELISA, coated human OX40
T7 construct: Bought; Several catalogue numbers are given for it; also called human OX40 (R&D Systems, 3388-OX); OX40-Fc (R&D systems, #3358_OX); not shown: Fc part
T7 sequence: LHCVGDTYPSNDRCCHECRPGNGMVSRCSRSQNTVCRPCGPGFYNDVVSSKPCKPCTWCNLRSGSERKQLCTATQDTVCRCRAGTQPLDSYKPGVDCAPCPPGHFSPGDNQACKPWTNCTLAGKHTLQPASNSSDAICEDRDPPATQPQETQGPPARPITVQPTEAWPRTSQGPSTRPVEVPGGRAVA
Protocol: ELISA plates were coated with human OX40 (R&D Systems, 3388-OX), CD40 (Ancell), or CD137 (R&D Systems) at 0.1 or 0.5 μg/ml. The ELISA plates were washed with PBST and then blocked with PBST+2% BSA for 1h at room temperature and then washed again with PBST. The antibodies were added in dilution series to the ELISA plates for 1 h at room temperature and then washed with PBST. Binding was detected using goat anti human kappa light chain HRP, incubated for 1h at room temperature. SuperSignal Pico Luminescent was used as substrate and luminescence was measured using Fluostar Optima.

| Binder | relative MFI vs isotype control [1] | relative MFI vs isotype control [2] | relative MFI vs isotype control [3] | relative MFI vs isotype control [4] | relative MFI vs isotype control [5] | relative MFI vs isotype control [6] | EC50 [7] [nM] |
| --- | --- | --- | --- | --- | --- | --- | --- |
| B1 | 1 | 0.9 | 29.6 | 1 | 46.6 | 13.2 | < 1 |
| B2 | 1 | 0.9 | 27.5 | 1 | 37.3 | 14 | < 1 |
| B3 | 1 | 0.9 | 29.4 | 1.2 | 40.2 | 7.1 | < 1 |
| B4 | 1 | 0.9 | 31.4 | 15.4 | 0.9 | 1.5 | < 1 |
| B5 | 1 | 0.9 | 24.9 | 1.1 | 44.4 | 8.4 | < 1 |
| B6 | 1 | 0.9 | 21.4 | 12.7 | 1.3 | 1.1 | < 1 |
